Experimental data published in patent US20180244758A1.

B1: mAb PE-87 (antibody, V domains shown)
VH: QVQLVQSGVTLVQPGGSLRVSCAASGFTFSSYAMSWVRQAPGKGLEWVSAISGLGGSTYYADSVKGRFTISRDNSKNTLYLQMNSLRAEDTAVYYCAKDHRVWAAGYHFDYWGQGALVTVSS
VL: DIVLTQSPSTLSASVGDRVTITCRASQSISSWLAWYQQKPGEAPKLLISDASSLESGVPSRFSGSGSGTEFTLTISSLQPDDFATYYCQQYYSSPTFGGGTKVEIK
B2: mAb PE-64 (antibody, V domains shown)
VH: EVQLVESGGGLVKPGGSLRLSCAASGFTFSNAWMSWVRQAPGKGLEWVGRIKSKTDGGTIDYAAPVKGRFTISRDDSKNTVYLQMTSLKTEDTAVYYCTTYTEDMRYFDWLLRGGETFDYWGQGTLVTVSS
VL: DIRLTQSPSSLSASVGDRVTITCRASHYISTYLNWYQQKPGKAPKLLIYAASNLQSGVPSRFSGSGFGTDFSLTISSLQPEDFATYHCQQSYSTPGRYTFGQGTKVEIK

What was measured:
[1] = molecular target: EBOV GPCL (cleaved GP) (Ebola virus (EBOV)) (UniProt Q05320)
Chain of EBOV GPCL (cleaved GP) (Ebola virus (EBOV)) (Q05320 33-190 limits assumed, chain 1 of 2): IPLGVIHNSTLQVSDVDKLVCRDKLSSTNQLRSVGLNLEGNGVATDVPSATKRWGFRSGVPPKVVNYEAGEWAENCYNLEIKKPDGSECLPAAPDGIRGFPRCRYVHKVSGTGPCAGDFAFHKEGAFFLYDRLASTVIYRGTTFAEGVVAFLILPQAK
Chain of EBOV GPCL (cleaved GP) (Ebola virus (EBOV)) (Q05320 502-637 limits assumed, chain 2 of 2): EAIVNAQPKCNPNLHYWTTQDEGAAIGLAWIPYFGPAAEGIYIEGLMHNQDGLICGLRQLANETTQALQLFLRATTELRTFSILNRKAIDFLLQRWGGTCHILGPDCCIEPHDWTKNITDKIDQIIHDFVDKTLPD

[2] = molecular target: SUDV GP on rVSV particles (Sudan virus (SUDV)) (UniProt Q66814); test: cell-based or functional assay
Chain of SUDV GP on rVSV particles (Sudan virus (SUDV)) (Q66814 33-676): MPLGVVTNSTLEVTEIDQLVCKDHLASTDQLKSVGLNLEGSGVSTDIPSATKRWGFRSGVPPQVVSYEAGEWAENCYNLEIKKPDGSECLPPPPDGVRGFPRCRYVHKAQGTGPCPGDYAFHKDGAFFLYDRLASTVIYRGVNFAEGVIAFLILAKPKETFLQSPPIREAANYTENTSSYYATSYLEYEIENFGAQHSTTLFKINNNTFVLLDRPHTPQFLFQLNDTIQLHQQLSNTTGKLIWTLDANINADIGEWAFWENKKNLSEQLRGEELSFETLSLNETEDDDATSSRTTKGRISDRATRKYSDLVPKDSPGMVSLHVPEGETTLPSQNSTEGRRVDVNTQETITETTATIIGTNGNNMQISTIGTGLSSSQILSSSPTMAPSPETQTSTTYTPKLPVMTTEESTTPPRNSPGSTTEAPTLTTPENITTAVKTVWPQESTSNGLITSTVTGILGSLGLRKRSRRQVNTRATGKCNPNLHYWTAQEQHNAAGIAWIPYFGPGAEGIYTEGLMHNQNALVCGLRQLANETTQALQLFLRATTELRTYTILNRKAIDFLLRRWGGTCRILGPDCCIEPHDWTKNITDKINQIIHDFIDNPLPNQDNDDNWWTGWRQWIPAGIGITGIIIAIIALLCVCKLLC

[3] = molecular target: GP of authentic (wild-type) BDBV (Bundibugyo virus (BDBV)); test: cell-based or functional assay
[4] = molecular target: EBOV GP on rVSV particles (Ebola virus (EBOV)) (UniProt Q05320); test: cell-based or functional assay
Chain of EBOV GP on rVSV particles (Ebola virus (EBOV)) (Q05320 33-676): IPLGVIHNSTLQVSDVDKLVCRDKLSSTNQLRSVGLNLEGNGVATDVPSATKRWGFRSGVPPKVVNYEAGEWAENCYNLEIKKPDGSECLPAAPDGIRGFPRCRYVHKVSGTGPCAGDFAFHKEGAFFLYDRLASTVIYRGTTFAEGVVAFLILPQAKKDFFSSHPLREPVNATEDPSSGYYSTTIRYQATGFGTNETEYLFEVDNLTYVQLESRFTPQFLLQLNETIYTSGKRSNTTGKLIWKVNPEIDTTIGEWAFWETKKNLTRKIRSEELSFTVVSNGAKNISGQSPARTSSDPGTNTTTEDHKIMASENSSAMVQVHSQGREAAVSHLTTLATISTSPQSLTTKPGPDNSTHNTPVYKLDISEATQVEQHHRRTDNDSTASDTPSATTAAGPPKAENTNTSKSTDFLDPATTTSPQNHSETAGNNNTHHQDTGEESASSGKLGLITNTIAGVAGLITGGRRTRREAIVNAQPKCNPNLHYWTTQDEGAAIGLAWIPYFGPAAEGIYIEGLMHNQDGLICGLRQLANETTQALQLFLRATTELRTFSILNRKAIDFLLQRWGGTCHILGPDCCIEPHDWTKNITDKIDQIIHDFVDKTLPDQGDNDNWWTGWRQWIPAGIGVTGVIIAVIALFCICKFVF

[5] = molecular target: TAFV GP on VSV pseudotype particles (Tai Forest virus (TAFV)) (UniProt Q66810); test: cell-based or functional assay
Chain of TAFV GP on VSV pseudotype particles (Tai Forest virus (TAFV)) (Q66810 33-676): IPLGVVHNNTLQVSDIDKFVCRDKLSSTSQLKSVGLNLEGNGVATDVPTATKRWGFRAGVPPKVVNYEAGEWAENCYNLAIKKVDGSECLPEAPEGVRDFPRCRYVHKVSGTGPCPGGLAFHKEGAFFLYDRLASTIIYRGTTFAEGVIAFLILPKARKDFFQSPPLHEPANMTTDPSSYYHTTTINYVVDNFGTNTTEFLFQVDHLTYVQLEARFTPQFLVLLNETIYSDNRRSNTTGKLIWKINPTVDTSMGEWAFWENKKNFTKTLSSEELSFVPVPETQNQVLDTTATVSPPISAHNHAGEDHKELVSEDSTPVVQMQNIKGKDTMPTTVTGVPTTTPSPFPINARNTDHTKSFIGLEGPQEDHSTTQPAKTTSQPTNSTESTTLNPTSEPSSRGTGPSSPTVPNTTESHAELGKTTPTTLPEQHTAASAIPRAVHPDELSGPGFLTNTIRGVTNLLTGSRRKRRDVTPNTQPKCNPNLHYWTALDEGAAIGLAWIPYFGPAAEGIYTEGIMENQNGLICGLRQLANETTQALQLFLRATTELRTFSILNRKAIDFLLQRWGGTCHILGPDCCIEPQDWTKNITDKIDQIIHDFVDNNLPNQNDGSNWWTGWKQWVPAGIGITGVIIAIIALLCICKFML

[6] = molecular target: GP of authentic (wild-type) EBOV (Ebola virus (EBOV)) (UniProt P87666); test: cell-based or functional assay
Chain of GP of authentic (wild-type) EBOV (Ebola virus (EBOV)) (P87666 33-676): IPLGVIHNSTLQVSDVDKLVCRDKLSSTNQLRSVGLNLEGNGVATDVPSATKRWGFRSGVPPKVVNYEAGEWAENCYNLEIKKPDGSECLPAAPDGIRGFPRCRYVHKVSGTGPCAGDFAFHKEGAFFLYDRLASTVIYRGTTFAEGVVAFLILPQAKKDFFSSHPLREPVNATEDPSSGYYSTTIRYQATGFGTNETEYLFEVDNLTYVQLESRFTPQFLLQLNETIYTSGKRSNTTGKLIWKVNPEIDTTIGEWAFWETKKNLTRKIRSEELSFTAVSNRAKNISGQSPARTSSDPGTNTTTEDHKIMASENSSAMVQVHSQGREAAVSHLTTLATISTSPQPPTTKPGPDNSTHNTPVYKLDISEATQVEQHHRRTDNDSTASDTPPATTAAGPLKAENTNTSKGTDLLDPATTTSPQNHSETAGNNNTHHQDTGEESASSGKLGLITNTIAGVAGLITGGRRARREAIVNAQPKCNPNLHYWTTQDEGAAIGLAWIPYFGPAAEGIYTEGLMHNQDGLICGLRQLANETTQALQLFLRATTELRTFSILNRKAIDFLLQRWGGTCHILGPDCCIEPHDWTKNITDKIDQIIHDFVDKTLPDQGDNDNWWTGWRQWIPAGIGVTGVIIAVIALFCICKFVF

[7] = molecular target: GP of authentic (wild-type) SUDV (Sudan virus (SUDV)) (UniProt Q66814); test: cell-based or functional assay
Chain of GP of authentic (wild-type) SUDV (Sudan virus (SUDV)) (Q66814 33-676): as the sequence (Q66814 33-676) above

[8] = molecular target: BDBV GP on rVSV particles (Bundibugyo virus (BDBV)); test: cell-based or functional assay

| Binder | Kd [1] | rVSV-GP neutralization IC50 [2] | Authentic virus neutralization IC50 [3] | rVSV-GP neutralization IC50 [4] | rVSV-GP neutralization IC50 [5] | Authentic virus neutralization IC50 [6] | Authentic virus neutralization IC50 [7] | rVSV-GP neutralization IC50 [8] |
| --- | --- | --- | --- | --- | --- | --- | --- | --- |
| B1 | < 0.001 nM | – | – | – | – | – | – | – |
| B2 | – | 40 nM | 1.5 nM | 2.5 nM | 8 nM | 0.6 nM | 120 nM | 0.4 nM |
